# Laboratory results reported in the DeepSol protein solubility set.
# Experiment: soluble on expression in E. coli; label from the status in PepcDB or PDB records
row,Sequence,soluble on expression in E. coli
1,MWAAYFEKTLVYKQNVKKSRKSKKEDPAEAEKLMKQALEEYLPKYSELLPIILARGTVTLFKNLALTAKDAMTPKEVEPEEPTEEELAQQRRQQRAAAAPQQLEFKFEVAQGMKAVSTNDPEMEKKYAAENEVVAQKQSGATWTPDELASLVRLSTEKYPAGTPNRWEQMGRVLNRSAEDVIAMAGKMKQMKQEDYTKLLMTTIQQSVPVEEKSEDDWSQAEQKAFETALQKYPKGTDERWERISEEIGSKTKKQVMVRFKQLAEMIRKKKTNDT,not soluble
2,MDYDVLILGGGIIGCSIAYELSKYSLNVSLIEKEYEIGDDTSIVNSDLVYDGIESKYNFNYGLETEGNQEIEKICSVLSVPFKKVNAIVCSRDKENEDTINKIYSRGIKRGIKDASLANIESAIAKSIILKDINNKGIELKDIGIVCADDLALAYGEVAFDNGVNFRLNEKVIEIKKISKGFNVTTSKNKFTCKIVINTIPDASSPILVDGKEDKGSKKNISNLIYFVLDRKVKASLKHAIAVLSNKGDSTYIFRDFEDNIIVKIVTKDDCLYDEALDKLKAVIGDIEEEDIIYFYKSRFINDKIVITNKLDSDGYIKVQCKSYAISTVTPSISRNVGEAIVKNLNCKLKKEFYGRRREIYRFRDMSNKQRQKLIATNPDYGKIICRCNQVTEGEIIDSIRRPLGARTLNGIKRRTGVFNGECLGTCCIDKIVKILAKETNKSLTEVIKKTENSSIVKGRIKEFDEMLEHHHHHH,not soluble
3,DLADRFAELERRYDARLGVYVPATGTTAAIEYRADERFAFCSTFKAPLVAAVLHQNPLTHLDKLITYTSDDIRSISPVAQQHVQTGMTIGQLCDAAIRYSDGTAANLLLADLGGPGGGTAAFTGYLRSLGDTVSRLDAEEPELNRDPPGDERDTTTPHAIALVLQQLVLGNALPPDKRALLTDWMARNTTGAKRIRAGFPADWKVIDKTGTGDYGRANDIAVVWSPTGVPYVVAVMSDRAGGGYDAEPREALLAEAATCVAGVLA,soluble
4,MGSDKIHHHHHHKAFPLRTVFSEGIYYVCAEDLAPAGVGYIHSNGYHYIVYDNHVLFIKEHETIFDFVEKLSPPLFVDGLLFVPIDALKKVMEGYQMYTKGEKVLIYDSLPIVLSAAKEKNGVTITYTGTIVPDMVSVEKSMGRVRINLSPVVVSLPNVSEDIKVELEKNGLSFIVDVGNFYPDVEYSIGDGKLLFRFLLVEGFFGRLEVADGVVFERKIEEFDEGEKTVVNYLIMDPEKVTIKPVVSENGFGTIERLDEMVKRVGGIAGINGNYFDPVTKFPIGLVVIDGKPYSAMFSGRPVFAITEDNEVFIGRVIVDVTLMVKDVLFLVKGINTLGEGEVLVYTKEFSKEIPKKDDKIYFVVKDSKVSQIGYKSHAEDSEYVVSISKKYEEYLSDLKEGDEVYISLQPNIPLRIKQAVEGGPLLIQNGAPIPDAWEEKARYGGGIAYAKAPRTVIATKDGKLWFLVFEGYNHITRGLTYDELVDFLVSRGFEDAMCVDGGSSSVMAVAGSLFGRTENSTAAIPVGIVVWEKKKTEVGK,not soluble
5,MTQPAIQLTEYQRKWIEDKSRFKISLKARQTGFSFAVSLEVVLDAVERRTTWVLLSRGERQSKELMEKVAMHARAIGVACEELETTFKIDDKDIKQLEVRFPNGSKVIGLPANPDTARGFSGNVVLDEFAFHADSRKIWTALYPTITRGYKIRVISTPNGKSGKFYDLWMDNTGTWSKHFVDIYMAKEQGLDIDIDELRKGCESEDDWLQEFCCEFIDENGALLPYELITPCETDEATFTLPEDFTPQGDLTLGVDIGRKRDLTVMWVLEYTGTLYWTRAIHILEKQKFSVQREQLFTYLSMPRMRRACIDATGIGMQLAEEAVEAFGSKVEAVEFTGPVKQELAITQRRVFEDRAVRIPIDRVLRNDLHSVQKITTAAGNIRYAAERSEHGHADRFWALALALHAAINNPFVPLETKVARHSTMRRAMEGYG,not soluble
6,MNANIMLNEDITPIGSDYDTVRGVIELLTLDYREQPSLEAIAARLGQSPTQLQKTFTRWAGLSPKAFLQAVTLDHAKRLLREEDLPLLETSIEVGMSGPGRLHDLFVTHEAMSPGEWKAKGGGLTIRYGFHASPFGLALVMITDRGLAGCAFADPGDERACFEDMAGRWPNADYVEDREATAPYAARIFEPAMWTADKPLRVVLLGTDFQVRVWKSLLKIPMGRAVTYSNIACDIGQPTASRAVGAAVGANPVSFVVPCHRAVGKSGALTGYHWGLTRKRAMLGWETGKALEHHHHHH,not soluble
7,MNRLLNEKVEEFKKGVLKAGWFIEKMFRNSISSLVERNESLAREVIADEEVVDQMEVEIQEKAMEVLGLFSPIGKPLLTVTAGIRVAELIENIADKCHDIAKNVLELMEEPPLKPLEDIPAMANQTSEMLKFALRMFADVNVEKSFEVCRMDSKVDDLYEKVREELLLYMMESPKYVKRALLLLEIAGNIEIIADYATNIVEVSVYMVQGEAYKCYHDELLLFKKSGGVLFESSD,soluble
8,MAHHHHHHMSGRAGRRGLDRVGVVIAMVDEAVEPETLKQLTGGGADVLNSSFHLTYNMVLNLLRVEDVDPEFMMHRSFAQFQRLRNRPVLEKRAEALTEEIESIHVEHEEVFRQFTLCQELLANRRKQLADILKQPTFLKRFTHSGRLLRIRRAADDVLFNWGICRAFHAKVPNADPKSPSEFSVDVAVICLKANAAKPTSLLPCHVNDFTTSTADLYTLTFDFTDIEGVARFRVNLPAEPDTESGRAQMVQTLSKLHRQYDDKVPLLTAEEMGVDDPQFEKLRVQVERLEAQLAENEFVQNPTKELESDFERFTHRAKLEKELNDIREELNQASRAIFSEELKQMMRVLRRLDYIDKDNVILRKARVACEITTTDENEILLTELLFKGVLNSMETEMIVALMSCLVNVHRTPDGFSLPEEFQQPLKELNEIVSRIATVSIESGVLQEGGVGVERTMPSLMEVTYMWAKGAKFVDIMSKTSAYEGEIVRMMRRLEEQLRQMAGAARSPAIGSMELHDKFLKGIQLIKRDIVFVSSLYL,not soluble
9,MASTFNPRECKLSKQEGQNYGFFLRIEKDTDGHLIRVIEEGSPAEKAGLLDGDRVLRINGVFVDKEEHAQVVELVRKSGNSVTLLVLDGDSYEKAVKNQVDLKELDQSQREAALNDKKPGPGMNGAVEPCAQPRLCYLVKEGNSFGFSLKTIQGKKGVYLTNIMPQGVAMKAGVLADDHLIEVNGENVENASHEEVVEKVTKSGSRIMFLLVDKETARCHSEQKTQFKRETASLKLLPHQPRVVVIKKGSNGYGFYLRAGPEQKGQIIKDIEPGSPAEAAGLKNNDLVVAVNGKSVEALDHDGVVEMIRKGGDQTTLLVLDKEAESIYSLARFSPLLYCQSQELPNGSVKEGPAPIPAPLEATGSEPTEDAEGHKPKLCRLLKEDDSYGFHLNAIRGQPGSFVKEVQQGGPADKAGLENEDVIIEVNGENVQEEPYDRVVERIKSSGKHVTLLVCGKMAYSYFQAKKIPIVSSMAEPLVAGPDEKGETSAESEHDAHPAKDRTLSTASHSSSNSEDTEM,soluble
10,MDEYRELISVLPLETVEYAFAYGSGAIQQQNEDKSEKMVDFVIVTKNAQEFHRDNILKNPQHYSLLRLMGPKMIEKIQCNFAARVYYNTHVKVGKRKIKYGVISYENVKQDLLDWRWIYISGRLHKPVLEVIKPRQDMCDLVTENRRSALHSSLLLLPESFTLKQLFHKIVGLSYTGDFRMVVGEDKNKINKIVEGNYEELLRVYEPLMNDDARLSVMSPAKLIQDGSTTAIYHRLNLLPSEVLNRIQKNMNRVQKRQRDAEEVIFSLAHRHDVAATVETAIGGIIRPVSLSQTAKNAFSAGVTRSIIYSMAKMSKFLKSK,not soluble
11,MGSSHHHHHHSSGENLYFQGHMSVSAFNRRWAAVILEALTRHGVRHICIAPGSRSTPLTLAAAENSAFIHHTHFDERGLGHLALGLAKVSKQPVAVIVTSGTAVANLYPALIEAGLTGEKLILLTADRPPELIDCGANQAIRQPGMFASHPTHSISLPRPTQDIPARWLVSTIDHALGTLHAGGVHINCPFAEPLYGEMDDTGLSWQQRLGDWWQDDKPWLREAPRLESEKQRDWFFWRQKRGVVVAGRMSAEEGKKVALWAQTLGWPLIGDVLSQTGQPLPCADLWLGNAKATSELQQAQIVVQLGSSLTGKRLLQWQASCEPEEYWIVDDIEGRLDPAHHRGRRLIANIADWLELHPAEKRQPWCVEIPRLAEQAMQAVIARRDAFGEAQLAHRICDYLPEQGQLFVGNSLVVRLIDALSQLPAGYPVYSNRGASGIDGLLSTAAGVQRASGKPTLAIVGDLSALYDLNALALLRQVSAPLVLIVVNNNGGQIFSLLPTPQSERERFYLMPQNVHFEHAAAMFELKYHRPQNWQELETAFADAWRTPTTTVIEMVVNDTDGAQTLQQLLAQVSHL,soluble
